46 molecules from article PMC9352680, “A comprehensive thermodynamic model for RNA binding by the Saccharomyces cerevisiae Pumilio protein PUF4” can be followed below.

Where only a bound is given, the exact number is not on record here.

This data set has as its target T1, PUF4 RNA-binding domain (Saccharomyces cerevisiae, UniProt P25339 537-888).
T1 sequence: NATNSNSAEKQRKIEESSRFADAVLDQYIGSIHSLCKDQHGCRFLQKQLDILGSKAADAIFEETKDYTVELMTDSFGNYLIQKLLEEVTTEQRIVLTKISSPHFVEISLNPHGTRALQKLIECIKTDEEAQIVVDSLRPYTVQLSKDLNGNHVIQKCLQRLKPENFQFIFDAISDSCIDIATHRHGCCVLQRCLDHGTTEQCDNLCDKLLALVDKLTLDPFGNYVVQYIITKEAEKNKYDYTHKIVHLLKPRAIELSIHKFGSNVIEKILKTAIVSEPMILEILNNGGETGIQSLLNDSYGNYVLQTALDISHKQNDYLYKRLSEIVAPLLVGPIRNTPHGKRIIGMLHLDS
The data set is described as follows: Mg; RNA-MaP; 20 mM Na-HEPES pH 7.4, 30 mM KOAc, 0.75 mM MgCl2, 0.1% Tween-20, 5% glycerol, 0.1 mg/mL BSA, 2 mM DTT; 25 C; 0.0125-409.6 nM protein. Conditions: tags: N-His6-TEV cleaved; C-SNAP kept, Cy3B-labelled; label: tethered on chip by stalled RNA polymerase.

In turn, UCUCUUCCUCUUGUAUAUAUAUCUCUU (ssRNA) [Ie_S1_P3E.2_K3.1_C3.2_[+-2CTC]_H3.1_A3.1_F3.1_T3.2] returned a Kd of 7.17 nM.

B1: Id_iii_S4_P3E.5_K3.1_C3.3_[C-2G]_H3.1_A3.1_F3.1_T3.2 (ssRNA)
RNA: UUUGACAACUGAUCGUUCUUUCUUGUUGUAUAUAUAUUCUUUCUCGAUCAGUUGUCUUU
The molecule B1 displayed a dissociation constant (Kd) of 1.77 nM.

B2: Id_iii_S4_P3E.6_K3.2_C3.3_H3.2_A3.1_F3.1_T3.2_[A10C] (ssRNA)
RNA: UUUGACAACUGAUCGUUCUUUCUUCUUAUAUAUAUCUUCUUUCUCGAUCAGUUGUCUUU
Regarding B2, the Kd was 131 nM.

B3: Id_iii_S4_P3E.8_K3.4_C3.3_H3.1_A3.2_F3.1_T3.2_[A10G] (ssRNA)
RNA: UUUGACAACUGAUCGUUCUUUCUUCUUGUAAAUAUGUUCUUUCUCGAUCAGUUGUCUUU
B3: the Kd amounted to 14.2 nM.

B4: Id_iii_S4_P3E.9_K3.5_C3.3_[T-3G]_H3.1_A3.2_F3.2_T3.2 (ssRNA)
RNA: UUUGACAACUGAUCGUUCUUUCUGCUUGUAAAAAUAUUCUUUCUCGAUCAGUUGUCUUU
The molecule B4 gave a Kd of 25.8 nM.

B5: Id_iii_S4_P3E.6_K3.2_C3.3_[T-1C]_H3.2_A3.1_F3.1_T3.2 (ssRNA)
RNA: UUUGACAACUGAUCGUUCUUUCUUCCUAUAUAUAUAUUCUUUCUCGAUCAGUUGUCUUU
B5 yielded a Kd of 33.1 nM.

B6: Id_iii_S4_P3E.7_K3.3_C3.3_[T-1A]_H3.3_A3.1_F3.1_T3.2 (ssRNA)
RNA: UUUGACAACUGAUCGUUCUUUCUUCAACACUAUAUAUUCUUUCUCGAUCAGUUGUCUUU
Take B6: the Kd is 137 nM.

B7: Id_iii_S4_P3E.7_K3.3_C3.3_[T-3A]_H3.3_A3.1_F3.1_T3.2 (ssRNA)
RNA: UUUGACAACUGAUCGUUCUUUCUACUACACUAUAUAUUCUUUCUCGAUCAGUUGUCUUU
As for B7, the Kd came out at 364 nM.

B8: Id_iii_S4_P3E.7_K3.3_C3.3_H3.3_A3.1_F3.1_T3.2_[A10C] (ssRNA)
RNA: UUUGACAACUGAUCGUUCUUUCUUCUACACUAUAUCUUCUUUCUCGAUCAGUUGUCUUU
B8 came in with a Kd of 611 nM.

B9: Id_iii_S4_P3E.9_K3.5_C3.3_[C-2T]_H3.1_A3.2_F3.2_T3.2 (ssRNA)
RNA: UUUGACAACUGAUCGUUCUUUCUUUUUGUAAAAAUAUUCUUUCUCGAUCAGUUGUCUUU
B9 came in with a Kd of 34.5 nM.

B10: Id_iii_S4_P3E.6_K3.2_C3.3_[C-2G]_H3.2_A3.1_F3.1_T3.2 (ssRNA)
RNA: UUUGACAACUGAUCGUUCUUUCUUGUUAUAUAUAUAUUCUUUCUCGAUCAGUUGUCUUU
Molecule B10 yielded a Kd of 20.4 nM.

B11: Id_iii_S4_P3E.9_K3.5_C3.3_[T-1A]_H3.1_A3.2_F3.2_T3.2 (ssRNA)
RNA: UUUGACAACUGAUCGUUCUUUCUUCAUGUAAAAAUAUUCUUUCUCGAUCAGUUGUCUUU
The molecule B11 came in with a Kd of 48.5 nM.

B12: Id_iii_S4_P3E.9_K3.5_C3.3_H3.1_A3.2_F3.2_T3.2_[A10C] (ssRNA)
RNA: UUUGACAACUGAUCGUUCUUUCUUCUUGUAAAAAUCUUCUUUCUCGAUCAGUUGUCUUU
The molecule B12 gave a Kd of 308 nM.

B13: Id_iii_S4_P3E.7_K3.3_C3.3_[C-2G]_H3.3_A3.1_F3.1_T3.2 (ssRNA)
RNA: UUUGACAACUGAUCGUUCUUUCUUGUACACUAUAUAUUCUUUCUCGAUCAGUUGUCUUU
Molecule B13 registered a Kd of 0.724 nM.

B14: Id_iii_S4_P3E.5_K3.1_C3.3_[T-1A]_H3.1_A3.1_F3.1_T3.2 (ssRNA)
RNA: UUUGACAACUGAUCGUUCUUUCUUCAUGUAUAUAUAUUCUUUCUCGAUCAGUUGUCUUU
As for B14, the Kd turned out to be 1.71 nM.

B15: Id_iii_S4_P3E.8_K3.4_C3.3_[T-1C]_H3.1_A3.2_F3.1_T3.2 (ssRNA)
RNA: UUUGACAACUGAUCGUUCUUUCUUCCUGUAAAUAUAUUCUUUCUCGAUCAGUUGUCUUU
Molecule B15 gave a Kd of 2.97 nM.

UCUCUUUGUACUCUUAUCUCUU (ssRNA) [Ib_S1_P5E.1_K5.1_C5.1_H5.1_A5.1_[T5C]_[A7C]_F5.1_T5.1] came in with a Kd of 9.68 nM.

The molecule UCUCUUCCCUUGUAUAUAUAUCUCUU (ssRNA) [Ie_S1_P3E.2_K3.1_C3.2_[+-2CC]_H3.1_A3.1_F3.1_T3.2] showed a Kd of 7.06 nM.

Regarding ACAAACUCAACACUAUAUAACAAAC (ssRNA) [Id_iii_S3_P3E.7_K3.3_C3.3_[T-1A]_H3.3_A3.1_F3.1_T3.2], the Kd is 1780 nM.

UCUCUUUGUACUGUUAUCUCUU (ssRNA) [Ib_S1_P5E.1_K5.1_C5.1_H5.1_A5.1_[T5C]_[A7G]_F5.1_T5.1]: binding was characterised by a dissociation constant (Kd) of 7.89 nM.

The molecule UCUCUUUGUAGUCUUAUCUCUU (ssRNA) [Ib_S1_P5E.1_K5.1_C5.1_H5.1_A5.1_[T5G]_[A7C]_F5.1_T5.1] gave a Kd of 93.7 nM.

In the case of UCUCUUCUUUUGUAUAUAUAUCUCUU (ssRNA) [Ie_S1_P3E.2_K3.1_C3.2_H3.1_[+1TT]_A3.1_F3.1_T3.2], the Kd is 5.47 nM.

In turn, UCUCUUCUUUGUAUAUAUAUCUCUU (ssRNA) [Ie_S1_P3E.2_K3.1_C3.2_[+-2T]_H3.1_A3.1_F3.1_T3.2] had a Kd of 4.55 nM.

In the case of ACAAACUCCACACUAUUAGUACAAAC (ssRNA) [Id_iii_S3_P4E.7_K4.3_C4.3_[T-1C]_H4.3_A4.1_F4.1_T4.2], the dissociation constant Kd was over 2300 nM.

Molecule UCUCUUUGUAGUUUUAUCUCUU (ssRNA) [Ib_S1_P5E.1_K5.1_C5.1_H5.1_A5.1_[T5G]_[A7T]_F5.1_T5.1] returned a Kd of 27.2 nM.

B16: Id_iii_S4_P4E.5_K4.1_C4.3_[C-2A]_H4.1_A4.1_F4.1_T4.2 (ssRNA)
RNA: UUUGACAACUGAUCGUUCUUUCUUAUUGUAUAUUAGUUUCUUUCUCGAUCAGUUGUCUUU
The molecule B16 displayed a Kd of 0.43 nM.

B17: Id_iii_S4_P4E.8_K4.4_C4.3_[T-3C]_H4.1_A4.2_F4.1_T4.2 (ssRNA)
RNA: UUUGACAACUGAUCGUUCUUUCUCCUUGUAUUUUAGUUUCUUUCUCGAUCAGUUGUCUUU
B17 came in with a Kd of 0.631 nM.

B18: Id_iii_S4_P4E.7_K4.3_C4.3_H4.3_A4.1_F4.1_T4.2_[T11C] (ssRNA)
RNA: UUUGACAACUGAUCGUUCUUUCUUCUACACUAUUAGCUUCUUUCUCGAUCAGUUGUCUUU
The molecule B18 came in with a Kd of over 2300 nM.

B19: Id_iii_S4_P4E.7_K4.3_C4.3_[C-2G]_H4.3_A4.1_F4.1_T4.2 (ssRNA)
RNA: UUUGACAACUGAUCGUUCUUUCUUGUACACUAUUAGUUUCUUUCUCGAUCAGUUGUCUUU
B19 came in with a Kd of 1.75 nM.

B20: Id_iii_S4_P4E.8_K4.4_C4.3_[T-1G]_H4.1_A4.2_F4.1_T4.2 (ssRNA)
RNA: UUUGACAACUGAUCGUUCUUUCUUCGUGUAUUUUAGUUUCUUUCUCGAUCAGUUGUCUUU
The molecule B20 showed a Kd of 1.14 nM.

B21: Id_iii_S4_P4E.7_K4.3_C4.3_[C-2A]_H4.3_A4.1_F4.1_T4.2 (ssRNA)
RNA: UUUGACAACUGAUCGUUCUUUCUUAUACACUAUUAGUUUCUUUCUCGAUCAGUUGUCUUU
For B21, binding was put at a Kd of 91.7 nM.

B22: Id_iii_S4_P4E.6_K4.2_C4.3_[T-1A]_H4.2_A4.1_F4.1_T4.2 (ssRNA)
RNA: UUUGACAACUGAUCGUUCUUUCUUCAUAUAUAUUAGUUUCUUUCUCGAUCAGUUGUCUUU
In the case of B22, the Kd is 7.5 nM.

B23: Id_iii_S4_P4E.8_K4.4_C4.3_H4.1_A4.2_F4.1_T4.2_[T11C] (ssRNA)
RNA: UUUGACAACUGAUCGUUCUUUCUUCUUGUAUUUUAGCUUCUUUCUCGAUCAGUUGUCUUU
Regarding B23, the Kd was found to be 1.04 nM.

B24: Id_iii_S4_P4E.8_K4.4_C4.3_H4.1_A4.2_F4.1_T4.2_[G10C] (ssRNA)
RNA: UUUGACAACUGAUCGUUCUUUCUUCUUGUAUUUUACUUUCUUUCUCGAUCAGUUGUCUUU
As to B24, the dissociation constant Kd came to 1.79 nM.

B25: Id_iii_S4_P4E.8_K4.4_C4.3_[C-2T]_H4.1_A4.2_F4.1_T4.2 (ssRNA)
RNA: UUUGACAACUGAUCGUUCUUUCUUUUUGUAUUUUAGUUUCUUUCUCGAUCAGUUGUCUUU
The molecule B25 registered a Kd of 0.755 nM.

B26: Id_iii_S4_P4E.8_K4.4_C4.3_[C-2A]_H4.1_A4.2_F4.1_T4.2 (ssRNA)
RNA: UUUGACAACUGAUCGUUCUUUCUUAUUGUAUUUUAGUUUCUUUCUCGAUCAGUUGUCUUU
For the molecule B26, the Kd is 1.14 nM.

B27: Id_iii_S4_P4E.8_K4.4_C4.3_[T-1C]_H4.1_A4.2_F4.1_T4.2 (ssRNA)
RNA: UUUGACAACUGAUCGUUCUUUCUUCCUGUAUUUUAGUUUCUUUCUCGAUCAGUUGUCUUU
In turn, B27 returned a dissociation constant (Kd) of 0.819 nM.

The molecule ACAAACUCUACACUAUAUUACAAAC (ssRNA) [Id_iii_S3_P3E.7_K3.3_C3.3_H3.3_A3.1_F3.1_T3.2_[A10T]] displayed a Kd of 922 nM.

For UCUCUUCUCUUGUAUAUAUAUCUCUU (ssRNA) [Ie_S1_P3E.2_K3.1_C3.2_[+-2TC]_H3.1_A3.1_F3.1_T3.2], binding was put at a Kd of 4.74 nM.

B28: Id_iii_S4_P5E.5_K5.1_C5.3_H5.1_A5.1_F5.1_T5.2_[A12C] (ssRNA)
RNA: UUUGACAACUGAUCGUUCUUUCUUCUUGUAUUAUUAUCUUCUUUCUCGAUCAGUUGUCUUU
For the molecule B28, the Kd was 1.71 nM.

B29: Id_iii_S4_P5E.8_K5.4_C5.3_[C-2G]_H5.1_A5.2_F5.1_T5.2 (ssRNA)
RNA: UUUGACAACUGAUCGUUCUUUCUUGUUGUAAUAUUAUAUUCUUUCUCGAUCAGUUGUCUUU
In turn, B29 registered a Kd of 11.1 nM.

B30: Id_iii_S4_P5E.7_K5.3_C5.3_[C-2T]_H5.3_A5.1_F5.1_T5.2 (ssRNA)
RNA: UUUGACAACUGAUCGUUCUUUCUUUUACACUUAUUAUAUUCUUUCUCGAUCAGUUGUCUUU
B30 returned a Kd of 513 nM.

B31: Id_iii_S4_P5E.8_K5.4_C5.3_H5.1_A5.2_F5.1_T5.2_[A12C] (ssRNA)
RNA: UUUGACAACUGAUCGUUCUUUCUUCUUGUAAUAUUAUCUUCUUUCUCGAUCAGUUGUCUUU
Take B31: binding was put at a Kd of 2.73 nM.

B32: Id_iii_S4_P5E.7_K5.3_C5.3_[C-2A]_H5.3_A5.1_F5.1_T5.2 (ssRNA)
RNA: UUUGACAACUGAUCGUUCUUUCUUAUACACUUAUUAUAUUCUUUCUCGAUCAGUUGUCUUU
In turn, B32 returned a Kd of 1020 nM.

B33: Id_iii_S4_P5E.7_K5.3_C5.3_[T-1C]_H5.3_A5.1_F5.1_T5.2 (ssRNA)
RNA: UUUGACAACUGAUCGUUCUUUCUUCCACACUUAUUAUAUUCUUUCUCGAUCAGUUGUCUUU
Take B33: the affinity, expressed as Kd, was 543 nM.

B34: Id_iii_S4_P5E.5_K5.1_C5.3_H5.1_A5.1_F5.1_T5.2_[A12T] (ssRNA)
RNA: UUUGACAACUGAUCGUUCUUUCUUCUUGUAUUAUUAUUUUCUUUCUCGAUCAGUUGUCUUU
With B34, the Kd was determined as 1.28 nM.

What is called Kd is the constant that tells how readily two partners part at equilibrium. A low value points to tighter binding.
